Test results reported in patent publication US20230302155A1, “COMPOSITIONS AND METHODS FOR IN VIVO GENERATION OF CAR EXPRESSING CELLS” (Novartis AG, priority 2020, published 2023).
Positions count from the first letter of the chain named. Numbers in names are those of the source. Entries after “also recorded” stand apart in the source; their conditions may differ.

B1: #8: minor mature VEGF-C (103-227) with C137A mutation, SEQ ID NO: 735 (His) / 736 (protein)
chain: TEETIKFAAAHYNTEILKSIDNEWRKTQCMPREVAIDVGKEFGVATNTFFKPPCVSVYRCGGCCNSEGLQCMNTSTSYLSKTLFEITVPLSQGPKPVTISFANHTSCRCMSKLDVYRQVHSIIRR
B2: #7: minor mature VEGF-C (103-227), wild type, SEQ ID NO: 733 (His) / 734 (protein, listed as Homo sapiens)
chain: B1 chain with A35C
B3: #9: major mature VEGF-C (112-227) with C137A mutation, SEQ ID NO: 737 (His) / 738 (protein)
chain: AHYNTEILKSIDNEWRKTQCMPREVAIDVGKEFGVATNTFFKPPCVSVYRCGGCCNSEGLQCMNTSTSYLSKTLFEITVPLSQGPKPVTISFANHTSCRCMSKLDVYRQVHSIIRR
B4: #2: major mature VEGF-C (112-227), wild type, SEQ ID NO: 731 (His) / 732 (protein, listed as Homo sapiens)
chain: B3 chain with A26C

Legend:
EGFRvIII CARTs = assay: Cytokine production of EGFRvIII CARTs stimulated by ligand-presenting MSRs; assay type: cell-based; details: lipid-coated MSRs, multiplex cytokine analysis
Description: Briefly, liposomes primarily composed of POPC with 1 mol % PE-biotin were formed using a thin film rehydration method and extrusion through a 100 nm polycarbonate membrane. Hydroxyl functionalized MSRs were incubated with the liposomes to allow the formation of a supported lipid bilayer on the MSR surface (FIG. 6). To functionalize the MSRs with CD3 and CD28 agonistic antibodies, MSRs were washed several times with PBS, incubated with streptavidin, and then tethered with biotinylated CD3 and CD28 antibodies. For MSR-immobilization of EGFRvIII CAR-binding peptides, a biotinylated EGFRvIII CAR-binding peptide was used (FIG. 7).
After incubation with the desired ligands, MSRs were washed several times with PBS and resuspended in culture medium at various concentrations and incubated with T cells. […] Cytokine production was assessed using a multiplex cytokine analysis method (Mesoscale Delivery V-Plex).

[1] = test system: lymphatic endothelial cells (LECs); assay: In vivo lymphangiogenesis in mouse skin after cryogel delivery (flow cytometry); design: species or system C57/BL6 mice; details: for in vivo lymphangiogenesis (LEC counts per mg of tissue): 10 μg VEGF-C in cryogel (0.25 mg/ml laponite), day 14
Description: (§1) Tissues were harvested from mice, weighted, and cut into very fine pieces with scissors. Samples were then enzymatically digested under constant stirring in of digestion media containing collagenase 4 and DNAse 1. Samples were then pipetted up and down. Following pipetting, digestion media containing collagenase D and DNAse 1 was added to the samples. Samples were pipetted up and down for 3 cycles. EDTA was added (5 mM) and cells were filtered through 70 μm filters and 40 uM mesh and resuspended in Fc blocking buffer. Cells were washed and stained for FACS analysis.
(§2) Cryogels (0.25 mg/ml laponite) containing 10 μg of different VEGF-C constructs were injected superficially into the dermis mice (N=5/group) at day 0. At day 14 mice were euthanized and the skin/cryogel (combined) were dissected for digestion and FACS analysis. Representative FACS plots of LECs (CD31^+, PDPN^+) are pre-gated on FSC-A/SSC-A, and CD45^− (FIG. 22). The results of FIG. 23 bear on the delivery of VEGF-C. Mice were injected with VEGF-C (N=12) or blank cryogels (N=10) synthesized as previously mentioned. Skin/gels from mice were harvested at timepoints day 7, 14, and 21, digested, and stained for FACS. LECs were gated on CD45^− CD31^+ PDPN^+. BECs were gated on CD45^− CD31^+ PDPN^−. CD4 and CD8 T Cells were gated on CD45^+ CD11b^−CD11c^−Thy1^+.
First, cryogels (0.25 mg/ml laponite) containing 10 μg of different VEGF-C forms, including the dimeric forms of the major and minor mature forms that are wild-type (#2 and #7, respectively) and the major and minor mature forms that comprise the C137A mutation (#9 and #8, respectively), were injected superficially into the dermis of mice (N=5/group) at day 0. At day 14 mice were euthanized and the skin/cryogel (combined) were dissected for digestion and FACS analysis (FIG. 22A). Specifically, tissues were harvested from mice, weighted, and cut into very fine pieces with scissors. Samples were then enzymatically digested under constant stirring of digestion media containing collagenase 4 and DNAse 1. Samples were then pipetted up and down. Following pipetting, digestion media containing collagenase D and DNAse 1 was added to the samples. Samples were pipetted up and down for 3 cycles. EDTA was added (5 mM) and cells were filtered through 70 μm filters and 40 μM mesh and resuspended in Fc blocking buffer. Cells were washed and stained for FACS analysis.
In addition, the response of skin lymphatics to […] VEGF-C delivered by alginate cryogels was measured. […] Skin/gels from mice were harvested as described above, at timepoints day 7, 14, and 21, digested, and stained for FACS. LECs were gated on CD45^− CD31^+ PDPN^+. BECs were gated on CD45^− CD31^+ PDPN^−. […] The number of cells per mg of tissue were also quantified.

[2] = test system: human dermal lymphatic endothelial cells (HDLECs); assay: HDLECs sprouting (tube formation) assay; assay type: cell-based; details: 600 μg of VEGF-C protein, overnight, phalloidin staining
Description: Human Dermal Lymphatic Endothelial Cells (HDLECs) were seeded (p0) and passaged at 75% confluence until p4 or enough cells were obtained for experiments. One ml was then aliquoted into Eppendorf tubes, treated with 600 μg of VEGF-C protein, and vortexed. Each treatment was added to warmed media in a 6 well plate and incubated overnight at 37 C (5% CO2). For imaging analysis cells were washed and then fixed with 3.7% formalin-0.05% Triton X-100 solution (fixing buffer), then washed and coated with 0.1% Triton X-100 solution (permeabilization buffer). After washing twice with PBS cells were coated with 0.05% Triton X-100 in 1% BSA solution (blocking buffer). DAPI and phalloidin staining was performed according to known protocols. After staining cells were washed twice with PBS and imaged.
An overview of the experimental setup of the in vitro sprouting assay on HDLECs to test the biological activity of VEGF-C variants is shown in FIG. 20A. HDLECs were first seeded (p0) and passaged at 75% confluence until p4 or enough cells were obtained for experiments. About 1 mL of the HDLECs was then aliquoted into Eppendorf tubes, treated with 600 μg of VEGF-C protein, and vortexed. Each treatment was added to warmed media in a 6 well plate and incubated overnight at 37 C (5% CO2). For imaging analysis, cells were washed and then fixed with 3.7% formalin-0.05% Triton X-100 solution (fixing buffer), then washed and coated with 0.1% Triton X-100 solution (permeabilization buffer). After washing twice with PBS, cells were coated with 0.05% Triton X-100 in 1% BSA solution (blocking buffer). DAPI and phalloidin staining was performed according to known protocols. After phalloidin staining, cells were washed twice with PBS, and imaged for tube formation.

[3] = test system: CD4+ T cells and CD8+ T cells; assay: Immune infiltration of mouse skin after cryogel delivery (flow cytometry); assay type: in vivo, C57/BL6 mice; details: skin on top of the cryogels
Description: as §1
as §2, with “BECs were gated on CD45^− CD31^+ PDPN^−. CD4 and CD8 T Cells were gated on CD45^+ CD11b^−CD11c^−Thy1^+.” left out
In addition, the response of skin lymphatics to […] VEGF-C delivered by alginate cryogels was measured. […] The number of cells per mg of tissue were also quantified.

| Molecule | interferon gamma and IL-2 production (EGFRvIII CARTs) | in vivo lymphangiogenesis (LEC counts per mg of tissue) ([1]; skin) | sprouting of HDLECs (tube formation) [2] | also measured |
| --- | --- | --- | --- | --- |
| EGFRvIII CAR-binding peptide bound to the surface of the MSRs: biotinylated peptide LEEKKGNYVVTDH (SEQ ID NO: 756) coupled via streptavidin to lipid-coated MSRs | produced interferon gamma and IL-2 | – | – | – |
| free EGFRvIII CAR-binding peptide in solution: EGFRvIII CAR-binding peptide LEEKKGNYVVTDH (SEQ ID NO: 756) [reference compound] | no response | – | – | – |
| B1 | – | high in vivo lymphangiogenesis; also recorded: higher amounts of LECs compared to the dimers of the major and minor mature forms that are wild-type | better sprouting of HDLECs than the immature form | blood vascular endothelial cells (BECs, CD45−CD31+PDPN−) ([1]; skin, 14 days after cryogel delivery): not affected; day of peak T cell / immune infiltration after cryogel delivery [3]: 14 days |
| B2 | – | – | better sprouting of HDLECs than the immature form | time of peak lymphangiogenesis after cryogel delivery ([1]; 10 μg VEGF-C in alginate cryogel, subcutaneous): 14 days |
| B3 | – | high in vivo lymphangiogenesis; also recorded: higher amounts of LECs compared to the dimers of the major and minor mature forms that are wild-type | better sprouting of HDLECs than the immature form | – |
| B4 | – | – | better sprouting of HDLECs than the immature form | – |
